Test results reported in IntAct's records for PubMed 25465129.

B1: Amyloid beta A4 precursor protein-binding family B member 1-interacting protein (Mus musculus), Q8R5A3 (parent)
chain: MGESNEDIDQMFSTLLGEMDLLTQSLGVDTLPPPDPNPPREEFNYTVGFKDLNESLNALEDQDLDALMADLVADISEAEQRTIQAQKESSQNQDRFALLRASDGQGTASGGYGASAAAIDVSHHEEALPPPPVEPMLDLLPPPPPPPPPELLSKEEEEAKAKADKIKLALEKLKEAKVKKLVVKVHMDDSSTKSLMVDERQLARDVLDNLFEKTHCDCNVDWCLYEIYPELQIERVFEDHENVVEVLSDWTRDTENKVLFLEKEERYAVFKNPQNFYLDNKGKKENKETNEKMNAKNKEYLLEESFCGTSIIVPELEGALYLKEDGKKSWKRRYFLLRASGIYYVPKGKTKTSRDLACFIQFENVNIYYGIQCKMKYKAPTDHCFVLKHPQIQKESQYIKYLCCDDARTLSQWVMGIRIAKYGKTLYDNYQRAVARAGLASRWTNLGTVGTPMPAQPSTVSSGLKTGTSQPNGQMPQAIPSAGPPLQEAQTQIETTKDEKQGLGNHSPGATRENHRPKSSLPPPPPPVRRSSDTCGSPALPSKVKGPGTCTFPHPPENFLPPPPPPPPEEDNSGLLPPPPPPPYLEEPPDFVPPPPPPAAVEDSALPPPPPPPPCLSQEITKSSPLPPKKPLVPPKRQENQGLPGAPGNSEQDFMSDLMKALQKKRGNIP
B2: Ras-associated and pleckstrin homology domains-containing protein 1 (Homo sapiens), Q70E73 (parent)
chain: MEQLSDEEIDHGAEEDSDKEDQDLDKMFGAWLGELDKLTQSLDSDKPMEPVKRSPLRQETNMANFSYRFSIYNLNEALNQGETVDLDALMADLCSIEQELSSIGSGNSKRQITETKATQKLPVSRHTLKHGTLKGLSSSSNRIAKPSHASYSLDDVTAQLEQASLSMDEAAQQSVLEDTKPLVTNQHRRTASAGTVSDAEVHSISNSSHSSITSAASSMDSLDIDKVTRPQELDLTHQGQPITEEEQAAKLKAEKIRVALEKIKEAQVKKLVIRVHMSDDSSKTMMVDERQTVRQVLDNLMDKSHCGYSLDWSLVETVSELQMERIFEDHENLVENLLNWTRDSQNKLIFMERIEKYALFKNPQNYLLGKKETAEMADRNKEVLLEECFCGSSVTVPEIEGVLWLKDDGKKSWKKRYFLLRASGIYYVPKGKAKVSRDLVCFLQLDHVNVYYGQDYRNKYKAPTDYCLVLKHPQIQKKSQYIKYLCCDDVRTLHQWVNGIRIAKYGKQLYMNYQEALKRTESAYDWTSLSSSSIKSGSSSSSIPESQSNHSNQSDSGVSDTQPAGHVRSQSIVSSVFSEAWKRGTQLEESSKARMESMNRPYTSLVPPLSPQPKIVTPYTASQPSPPLPPPPPPPPPPPPPPPPPPPPLPSQSAPSAGSAAPMFVKYSTITRLQNASQHSGALFKPPTPPVMQSQSVKPQILVPPNGVVPPPPPPPPPPTPGSAMAQLKPAPCAPSLPQFSAPPPPLKIHQVQHITQVAPPTPPPPPPIPAPLPPQAPPKPLVTIPAPTSTKTVAPVVTQAAPPTPTPPVPPAKKQPAFPASYIPPSPPTPPVPVPPPTLPKQQSFCAKPPPSPLSPVPSVVKQIASQFPPPPTPPAMESQPLKPVPANVAPQSPPAVKAKPKWQPSSIPVPSPDFPPPPPESSLVFPPPPPSPVPAPPPPPPPTASPTPDKSGSPGKKTSKTSSPGGKKPPPTPQRNSSIKSSSGAEHPEPKRPSVDSLVSKFTPPAESGSPSKETLPPPAAPPKPGKLNLSGVNLPGVLQQGCVSAKAPVLSGRGKDSVVEFPSPPSDSDFPPPPPETELPLPPIEIPAVFSGNTSPKVAVVNPQPQQWSKMSVKKAPPPTRPKRNDSTRLTQAEISEQPTMATVVPQVPTSPKSSLSVQPGFLADLNRTLQRKSITRHGSLSSRMSRAEPTATMDDMALPPPPPELLSDQQKAGYGGSHISGYATLRRGPPPAPPKRDQNTKLSRDW

Variants of: B1
Settings: with tln1_mouse Tln1, P26039
Chain of tln1_mouse Tln1, P26039 (P26039 whole entry): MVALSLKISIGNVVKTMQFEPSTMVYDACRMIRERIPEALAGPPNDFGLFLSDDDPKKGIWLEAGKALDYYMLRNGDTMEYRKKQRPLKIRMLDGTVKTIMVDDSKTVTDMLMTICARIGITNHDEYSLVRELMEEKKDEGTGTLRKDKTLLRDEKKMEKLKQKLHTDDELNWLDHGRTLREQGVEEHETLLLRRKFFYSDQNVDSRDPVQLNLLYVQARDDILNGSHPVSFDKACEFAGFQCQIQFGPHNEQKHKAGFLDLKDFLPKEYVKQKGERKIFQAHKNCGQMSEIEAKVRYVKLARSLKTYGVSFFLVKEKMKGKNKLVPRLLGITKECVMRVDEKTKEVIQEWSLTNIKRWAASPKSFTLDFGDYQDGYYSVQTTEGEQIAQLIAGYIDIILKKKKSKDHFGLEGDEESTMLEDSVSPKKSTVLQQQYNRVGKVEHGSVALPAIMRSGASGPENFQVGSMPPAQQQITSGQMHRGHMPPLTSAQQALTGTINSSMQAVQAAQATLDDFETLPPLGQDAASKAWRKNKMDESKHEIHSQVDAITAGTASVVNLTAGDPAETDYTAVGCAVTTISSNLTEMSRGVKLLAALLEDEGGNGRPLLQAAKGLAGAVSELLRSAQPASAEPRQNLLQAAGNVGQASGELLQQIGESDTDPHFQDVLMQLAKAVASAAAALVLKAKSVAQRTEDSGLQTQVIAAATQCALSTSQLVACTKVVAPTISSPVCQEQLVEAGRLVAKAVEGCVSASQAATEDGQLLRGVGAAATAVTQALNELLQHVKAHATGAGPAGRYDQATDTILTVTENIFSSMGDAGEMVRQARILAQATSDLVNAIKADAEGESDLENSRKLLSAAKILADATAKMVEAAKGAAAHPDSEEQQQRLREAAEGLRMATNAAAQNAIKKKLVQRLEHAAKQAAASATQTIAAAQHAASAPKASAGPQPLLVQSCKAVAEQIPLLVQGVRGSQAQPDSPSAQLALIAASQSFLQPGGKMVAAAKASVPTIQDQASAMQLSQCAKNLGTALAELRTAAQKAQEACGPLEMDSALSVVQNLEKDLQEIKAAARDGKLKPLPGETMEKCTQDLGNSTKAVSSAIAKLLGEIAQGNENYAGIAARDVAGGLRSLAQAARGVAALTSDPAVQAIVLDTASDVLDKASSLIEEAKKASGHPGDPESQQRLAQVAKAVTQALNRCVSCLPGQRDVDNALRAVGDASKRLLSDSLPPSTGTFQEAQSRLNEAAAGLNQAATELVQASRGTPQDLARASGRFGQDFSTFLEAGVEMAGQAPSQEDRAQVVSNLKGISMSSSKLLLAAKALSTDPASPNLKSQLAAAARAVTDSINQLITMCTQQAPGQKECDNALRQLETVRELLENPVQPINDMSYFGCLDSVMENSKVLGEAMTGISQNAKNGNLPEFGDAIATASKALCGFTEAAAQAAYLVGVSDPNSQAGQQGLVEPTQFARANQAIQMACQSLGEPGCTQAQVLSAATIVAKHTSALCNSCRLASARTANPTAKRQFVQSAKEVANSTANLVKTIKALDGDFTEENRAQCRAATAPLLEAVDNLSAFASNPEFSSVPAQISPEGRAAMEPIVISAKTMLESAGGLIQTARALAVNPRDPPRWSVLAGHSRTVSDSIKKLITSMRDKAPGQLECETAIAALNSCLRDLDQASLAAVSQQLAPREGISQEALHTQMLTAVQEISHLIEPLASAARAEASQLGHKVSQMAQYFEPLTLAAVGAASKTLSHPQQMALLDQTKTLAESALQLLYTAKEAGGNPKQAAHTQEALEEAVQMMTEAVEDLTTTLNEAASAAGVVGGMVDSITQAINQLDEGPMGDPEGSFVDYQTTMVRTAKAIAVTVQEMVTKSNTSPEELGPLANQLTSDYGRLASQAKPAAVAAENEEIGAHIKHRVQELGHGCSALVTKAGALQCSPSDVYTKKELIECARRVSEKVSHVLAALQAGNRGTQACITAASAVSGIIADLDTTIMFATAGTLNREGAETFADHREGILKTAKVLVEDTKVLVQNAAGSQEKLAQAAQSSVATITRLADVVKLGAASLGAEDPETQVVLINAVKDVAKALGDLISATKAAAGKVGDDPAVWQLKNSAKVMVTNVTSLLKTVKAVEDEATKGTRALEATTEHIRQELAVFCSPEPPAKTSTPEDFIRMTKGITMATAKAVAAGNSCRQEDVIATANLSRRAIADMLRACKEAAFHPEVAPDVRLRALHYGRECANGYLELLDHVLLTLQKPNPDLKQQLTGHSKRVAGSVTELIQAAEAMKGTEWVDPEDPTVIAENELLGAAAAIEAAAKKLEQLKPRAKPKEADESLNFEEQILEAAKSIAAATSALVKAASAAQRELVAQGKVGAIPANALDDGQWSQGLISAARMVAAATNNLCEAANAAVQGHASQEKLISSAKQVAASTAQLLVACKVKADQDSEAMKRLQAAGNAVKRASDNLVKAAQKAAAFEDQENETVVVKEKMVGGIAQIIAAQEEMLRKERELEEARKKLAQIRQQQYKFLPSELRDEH

Variant | effect of a mutation on the interaction
D9A | decreasing interaction strength
S13G | disrupting interaction strength
L15Y | disrupting interaction strength
E18A | disrupting interaction strength

Variants of: B1
Settings: with tln1_mouse Tln1, P26039
Remark: another data set of the same source

Variant | effect of a mutation on the interaction
S13G | decreasing interaction strength

Variants of: B2
Settings: with tln1_mouse Tln1, P26039

Variant | effect of a mutation on the interaction
G29S | increasing interaction strength
